Data taken from IntAct's records for PubMed 19242489.

B1: Integrin beta-4 (Homo sapiens), P16144 (parent)
chain: MAGPRPSPWARLLLAALISVSLSGTLANRCKKAPVKSCTECVRVDKDCAYCTDEMFRDRRCNTQAELLAAGCQRESIVVMESSFQITEETQIDTTLRRSQMSPQGLRVRLRPGEERHFELEVFEPLESPVDLYILMDFSNSMSDDLDNLKKMGQNLARVLSQLTSDYTIGFGKFVDKVSVPQTDMRPEKLKEPWPNSDPPFSFKNVISLTEDVDEFRNKLQGERISGNLDAPEGGFDAILQTAVCTRDIGWRPDSTHLLVFSTESAFHYEADGANVLAGIMSRNDERCHLDTTGTYTQYRTQDYPSVPTLVRLLAKHNIIPIFAVTNYSYSYYEKLHTYFPVSSLGVLQEDSSNIVELLEEAFNRIRSNLDIRALDSPRGLRTEVTSKMFQKTRTGSFHIRRGEVGIYQVQLRALEHVDGTHVCQLPEDQKGNIHLKPSFSDGLKMDAGIICDVCTCELQKEVRSARCSFNGDFVCGQCVCSEGWSGQTCNCSTGSLSDIQPCLREGEDKPCSGRGECQCGHCVCYGEGRYEGQFCEYDNFQCPRTSGFLCNDRGRCSMGQCVCEPGWTGPSCDCPLSNATCIDSNGGICNGRGHCECGRCHCHQQSLYTDTICEINYSAIHPGLCEDLRSCVQCQAWGTGEKKGRTCEECNFKVKMVDELKRAEEVVVRCSFRDEDDDCTYSYTMEGDGAPGPNSTVLVHKKKDCPPGSFWWLIPLLLLLLPLLALLLLLCWKYCACCKACLALLPCCNRGHMVGFKEDHYMLRENLMASDHLDTPMLRSGNLKGRDVVRWKVTNNMQRPGFATHAASINPTELVPYGLSLRLARLCTENLLKPDTRECAQLRQEVEENLNEVYRQISGVHKLQQTKFRQQPNAGKKQDHTIVDTVLMAPRSAKPALLKLTEKQVEQRAFHDLKVAPGYYTLTADQDARGMVEFQEGVELVDVRVPLFIRPEDDDEKQLLVEAIDVPAGTATLGRRLVNITIIKEQARDVVSFEQPEFSVSRGDQVARIPVIRRVLDGGKSQVSYRTQDGTAQGNRDYIPVEGELLFQPGEAWKELQVKLLELQEVDSLLRGRQVRRFHVQLSNPKFGAHLGQPHSTTIIIRDPDELDRSFTSQMLSSQPPPHGDLGAPQNPNAKAAGSRKIHFNWLPPSGKPMGYRVKYWIQGDSESEAHLLDSKVPSVELTNLYPYCDYEMKVCAYGAQGEGPYSSLVSCRTHQEVPSEPGRLAFNVVSSTVTQLSWAEPAETNGEITAYEVCYGLVNDDNRPIGPMKKVLVDNPKNRMLLIENLRESQPYRYTVKARNGAGWGPEREAIINLATQPKRPMSIPIIPDIPIVDAQSGEDYDSFLMYSDDVLRSPSGSQRPSVSDDTGCGWKFEPLLGEELDLRRVTWRLPPELIPRLSASSGRSSDAEAPHGPPDDGGAGGKGGSLPRSATPGPPGEHLVNGRMDFAFPGSTNSLHRMTTTSAAAYGTHLSPHVPHRVLSTSSTLTRDYNSLTRSEHSHSTTLPRDYSTLTSVSSHDSRLTAGVPDTPTRLVFSALGPTSLRVSWQEPRCERPLQGYSVEYQLLNGGELHRLNIPNPAQTSVVVEDLLPNHSYVFRVRAQSQEGWGREREGVITIESQVHPQSPLCPLPGSAFTLSTPSAPGPLVFTALSPDSLQLSWERPRRPNGDIVGYLVTCEMAQGGGPATAFRVDGDSPESRLTVPGLSENVPYKFKVQARTTEGFGPEREGIITIESQDGGPFPQLGSRAGLFQHPLQSEYSSITTTHTSATEPFLVDGLTLGAQHLEAGGSLTRHVTQEFVSRTLTTSGTLSTHMDQQFFQT

Variants of: B1
Details: with plec_human PLEC

Row | Variant | effect of a mutation on the interaction
1 | R1225H | disrupting interaction

Variants of: B1
Details: with plec_human PLEC
Remark: another data set of the same source

Row | Variant | effect of a mutation on the interaction
2 | R1281A | disrupting interaction
